19 sequences from the DeepSol protein solubility set can be followed below.

The nature of this series: soluble on expression in E. coli; label from the status in PepcDB or PDB records.
In the case of “MGHHHHHHSHMTKIIPVASGKGGVGKTSFVANVGYKLSSLGKTVILVDLDLGGSNLHTCLGVKNKGVGIGSFINKKSKSFSDLVCKTSYDKLYLIPGDALYTGTANLPFSIKKKIIESIQKDLIADFIFLDLGSGTSYNTIDFYLASYSGVIVTIPETPSILNAYSFLKNALYRLLYLGFP”, the “soluble on expression in E. coli” value was “not soluble”. With “MGHHHHHHSHMTLKSSGRISDVFLCRHEKIFHPNKGYIYVVKVMRENTHEATYIQRTFEEFQELHNKLRLLFPSSHLPSFPSRFVIGRSRGEAVAERRREELNGYIWHLIHAPPEVAECDLVYTFFHPLPRDEKAMGTSPAPKSSDGTWARPVGKVGGEVKLSISYKNNKLFIMVMHIRGLQLLQDGNDPDPYVKIYLLPDPQKTTKRKTKVARKTCNPTYNEMLVYDGIPKGDLQQRELQLSVLSEQGFWENVLLGEVNIRLRELDLAQEKTGWFALGSRSHGTL”, the “soluble on expression in E. coli” value was “not soluble”. For “MGHHHHHHSHMVISWHLASDMDCVVTLTTDAARRIYDETQGRQQVLPLDSIYKKTLPDWKRSLPHFRNGKLYFKPIGDPVFARDLLTFPDNVEHCETVFGMLLGDTIILDNLDAANHYRKEVVKITHCPTLLTRDGDRIRSNGKFGGLQNKAPPMDKLRGMVFGAPVPKQCLILGEQIDLLQQYRSAVCKLDSVNKDLNSQLEYLRTPDMRKKKQELDEHEKNLKLIEEKLGMTPIRKCNDSLRHSPKVETTDCPVPPKRMRREATRQNRIITKTDV” the value was “not soluble”. As for “MGHHHHHHSHMVTPVTWMDNPIEVYVNDSVWVPGPTDDHCPAKPEEEGMMINISIGYHYPPICLGRAPGCLMPAVQNWLVEVPTVSPISRFTYHMVSGMSLRPRVNYLQDFSYQRSLKFRPKGKPCPKEIPKGSKNTEVLVWEECVANSAVILQNSEFGTIID”, the “soluble on expression in E. coli” value is recorded as “not soluble”. As to “MGHHHHHHSHMVYPEEPFWVLPTVTGFYEDRDYRVNVVEALQEFWQMKQSRGAELKNGALVIYESIPSNSQPYICFVTLPGGSCFGSFQNCPTKAEARRSSAKIALMNSVFNEHPSRRISDEFIQKAVQDARTSFKGTSQINEGTESGIGAFRFMLEANKGRTMLEFQELMTVFQLLHWNGSLKAMRERHCSRQEVVAHYSNRSLDDEMRSQMALDWIAREHDNPGVIRRELVLAERELETFRMAGRELRFPKEKKDILMIAHNQLGGSALNSATIDD”, the “soluble on expression in E. coli” value was “not soluble”.

As for “MGHHHHHHSHMYAKEIFSYMKEREEQFILTDYMNRQIEITSDMRAILVDWLVEVQVSFEMTHETLYLAVKLVDLYLMKAVCKKDKLQLLGATAFMIAAKFEEHNSPRVDDFVYICDDNYQRSEVLSMEINILNVLKCDINIPIAYHFLRRYAR”, the “soluble on expression in E. coli” value is recorded as “not soluble”. For the sequence “MGHHHHHHSHRNRARFAARKQLVLNLVSSPGSGKTTLLTETLMRLKDSVPCAVIEGDQQTVNDAARIRATGTPAIQVNTGKGCHLDAQMIADAAPRLPLDDNGILFIENVGNLVCPASFDLGEKHKVAVLSVTEGEDK”, the “soluble on expression in E. coli” value is given as “soluble”. Consider “MGHHHHHHSHVLLNEILEQVKDRTCLRALEKIKIQLEKGNKEFGDQAEAAQDATLTTTTFQNEDEKNKEVYMTPLRGVKATQASKSTQLKTNRGQRKVTVSARTNRRCQTAEADSESDHEVPEPESEMKMRLPRRAKTAALEKSKLNLAQFLNEDLS”, for which the “soluble on expression in E. coli” value is reported as “not soluble”. In the case of “MGIDKELYKACETALKQCMGVKPGETVLVIADEPEREIGYHLWMKAKELGAEAIYVEILPRKMHGEEPPKPVAEAMKVADVVIAPTSKSITHTLAKKEACERGARVATLPGITREIFVRTMSADYEGMLELTNKIADVLDKGKEVHILTPLGTDLKFSIEGRKARRSTGIYRNPGECGNLPGAEAYIAPLEGTANGRVVIDGSMAGIGVLKEPIEIIVKDGFAEDIRGGEEAEKLREILSRYGKEARNIAEFGVGTNPKARISGNILEDEKVFGTVHIALGSNYDFGGKVKAPVHLDGIIKEPTVLIDGKYLFKDGNLVI”, the “soluble on expression in E. coli” value is on record as “soluble”. On to “MGIGKEIRLERIMNRETRKTIIVPMDHGVSSGPIEGIVNIREAVEKVAEGGANAVVLHKGMVRAGHRGRGRDIGLIVHLSASTDLSPRKNDKVLVCTVEEAIRLGADAVSIHVNIGAEGEREMLKDFGYVSKVCEEWQMPLLAMVYGRGPKIENQYDPKVVAHCARVGAELGADIVKVPYTGDPETFKLAIEGSPIPVVIAGGPKMKSEREVLEMVQGAMQAGAAGLSIGRNIFQAKDPAKMVRAMSLIVHEGKSVEEAFEILK”, for which the “soluble on expression in E. coli” value is on record as “not soluble”. With “MGKALVIVESPAKAKTINKYLGSDYVVKSSVGHIRDLPTSGSAAKKSADSTSTKTAKKPKKDERGALVNRMGVDPWHNWEAHYEVLPGKEKVVSELKQLAEKADHIYLATDLDREGEAIAWHLREVIGGDDARYSRVVFNEITKNAIRQAFNKPGELNIDRVNAQQARRFMDRVVGYMVSPLLWKKIARGLSAGRVQSVAVRLVVEREREIKAFVPEEFWEVDASTTTPSGEALALQVTHQNDKPFRPVNKEQTQAAVSLLEKARYSVLEREDKPTTSKPGAPFITSTLQQAASTRLGFGVKKTMMMAQRLYEAGYITYMRTDSTNLSQDAVNMVRGYISDNFGKKYLPESPNQYASKENSQEAHEAIRPSDVNVMAESLKDMEADAQKLYQLIWRQFVACQMTPAKYDSTTLTVGAGDFRLKARGRILRFDGWTKVMPALRKGDEDRILPAVNKGDALTLVELTPAQHFTKPPARFSEASLVKELEKRGIGRPSTYASIISTIQDRGYVRVENRRFYAEKMGEIVTDRLEENFRELMNYDFTAQMENSLDQVANHEAEWKAVLDHFFSDFTQQLDKAEKDPEEGGMRPNQMVLTSIDCPTCGRKMGIRTASTGVFLGCSGYALPPKERCKTTINLVPENEVLNVLEGEDAETNALRAKRRCPKCGTAMDSYLIDPKRKLHVCGNNPTCDGYEIEEGEFRIKGYDGPIVECEKCGSEMHLKMGRFGKYMACTNEECKNTRKILRNGEVAPPKEDPVPLPELPCEKSDAYFVLRDGAAGVFLAANTFPKSRETRAPLVEELYRFRDRLPEKLRYLADAPQQDPEGNKTMVRFSRKTKQQYVSSEKDGKATGWSAFYVDGKWVEGKK”, the “soluble on expression in E. coli” value was “soluble”. For “MGKGLLGKRVAIGGSRKTEEISTIIEKQGGIPVIRPLQGTVYLAEKQVEPDLRTFAEEKADWVIFTTGIGLETLVDMAEKIGLKDEFLQAIRQAKAACRGYKTLSALKKLGITPEASDEDGTTRGLIRSLEPHDFSGKTVMVQLHGEKAPALMAFLEEKGASVLPILPYQHIPPEEETVERLCRELMNDEVDAVCFTTAIQVRSLFDFAKGRGYINEVKKVFEERAIAAAVGKVTAEALREEGITRLLAPEIERMGAMIVELAKYYEEKE” the value was “not soluble”; for “MGKITGFLEIERHDRKYTPVAERVKHFHEFVVPLTERETRDQAARCMNCGIPYCHGTGSVAPGTPGCPVNNQIPDFNDLVYQGNWEEASRNLHSTNNFPEFTGRICPAPCEASCTLNIDDNPVTIKTIECAIVDRAWDNGWLKPEVASVKTGKKVAVIGSGPAGMACAQQLARAGHDVHLFEKFAKAGGLLRYGIPDFKMEKGIIDRRVKQMEGEGVTFHYNSHVGADGNVDPREMLNEYDAVALTGGAEAPRDLPIPGRDLQGIHYAMDFLPQQNRRVSEEPLNGVTEILAGGKHVVVIGGGDTGSDCIGTSLRQGALSVTQLEIMPAPPERENKGLTWPNWPLKMRTSSSQAEGAIREFAVLTQKFSGENGQVKKLHCVRVDDKFKPIAGTEFELDAELVLLAMGFVHPVHEGLLKLLSVELDPRGNVKANTLDYQTSRPNVFTAGDMRRGQSLVVWAIREGRLCARSIDTFLMGKTDLPRLEHHHHHH”, “soluble”. For the sequence “MGKKAKLGHKTGVNKGILLTDRQRLNWLRLLRSENIGAVSFRNLIDHYKTAENALAALPELSRKGGLATSIRIATLEDAEKEMQEAEKLGIRFVGIGEPDYPTFLKVTEASPPLIAIKGNVSVFEKASVGIVGSRNASAAGKKLAAQFAHFLGNADFTIISGLARGIDSIAHQASLQTGTVAVMAGGIDHIYPPENKKLHEDIIANGGAIISEMPIGWKPRAIDFPRRNRIIAGLSLGLLVVEAALQSGSLITARQAAEMGRLTFAIPGSPLDPRSVGTNNLLKDGALLTTHPSDIIETLTPLIPTPTNHQLNFFEELPSLQLEKDCFNSSDKKTKITSFVGDERERRAVLSALSTTPIDLDTLSTNSGVSLSNLYLLLVELELAGKLIRHSGGYVSLSNFDLLQEPPHY”, the “soluble on expression in E. coli” value is on record as “not soluble”. For “MGKLFGTDGVRGIVNKELTPELVLKLSKAIGTFFGKNSKILVGRDVRAGGDMLVKIVEGGLLSVGVEVYDGGMAPTPALQYAVKTLGYDGGVVITASHNPAPYNGIKVVDKDGIEIRREKENEIEDLFFTERFNTIEWSSLTTEVKREDRVISTYVNGILSHVDIEKIKKKNYKVLIDPANSVGALSTPLVARALGCKIYTINGNLDPLFSARQPEPTFDSLKETAEVVKTLKVDLGVAHDGDADRAIFIDSEGRVQWGDRSGTLLSYWASVKNPKAIKKIVTAVSSSSLVEEYLSKYNIQVDWTKVGSVDIAHKVADENALAGFEENGGFMYPPHQYVRDGAMSFALMLELLANENVSSAELFDRLPKYYLVKTKVDLKPGLMVEEIYKKILEVYSTSSVKAITIDGVKIIGKDFWFLVRKSGTEPIIRIMAEAKDENVANNLVNELKKIVEGK”, the “soluble on expression in E. coli” value is “soluble”.

In the case of “MGKLLTMAMPKGRIFEEAAGLLRQAGYRLPEEFEDSRKLIIDVPEENLRFILAKPMDVTTYVEHGVADVGIAGKDVMLEEERDVYEVLDLNISKCHLAVAGLPNTDWSGVAPRIATKYPNVASSYFREQGEQVEIIKLNGSIELAPLIGLADRIVDIVSTGQTLKENGLVETEHICDITSRFIVNPVSYRMKDDVIDEMASRLSLVVEGETAKLEHHHHHH”, the “soluble on expression in E. coli” value was “soluble”.

On to “MGKLMEIIIISGRSGAGKSVALRALEDAGYYCVDNIPLDLLPQLTDILSQSQSSVAISLDIRNIPNSAHSLKQTLSTLQKHHQIKIIFLEADRATLIRRYSDSRRLHPLSLKDLSLEAAIDEEYRYLEPLIQHANLILDTTHLSTHSLAERLREFLRGNSEKELKIIVESFGFKYGIPLDADYVFDVRFLPNPHWDPTLRPMTGLEAPVAEFLNSHTEVNEFIYLTRHYIDTWLPMLEKNNRSYLTIAIGCTGGKHRSVYIAQQLGEYFQAKGKTVKIQHKSLERNKKI”, for which the “soluble on expression in E. coli” value is listed as “not soluble”. Take “MGKNRNKNKDKDPYIGPAKTGRNDSDSDDSESSAYTYNEDIQSIMGDVEDMNDVYDQLVDNLDRAQDKNSTTRIDGLHRVNLALTAKPAPEFINRNKETIMAVCSRMANKPDSEAQFLARLVGLVAVQAGEEISEMIAEPMSQMRTILMDASRCVFLRTACATSLAIVTRIACSEDEEVTANAKACRFAWAHTKVSGSANDIGHAKLTINDAVADQPKIVTLLSSNQLEVRLAAAETLAFLHEFMQDARPGFRFPNKEHVLSLLDQMVNDSSKKKTKKDKRAQRYAVRDIRAFIADEDDAPEVNVKIGQQTLSLDSCAIKIFYDTTCDLLHGGLAQQLLHNEVLRDVFDLGPIALEPAESANKQSRLAVHEAADKHRNQVRGKQRDKRSTVY”: the “soluble on expression in E. coli” value is “not soluble”.

As for “MGLEVAADSVGSALAAQDGGAIRVELCGGLDGGGLTPSFGTLAVVRERLQIPLYVLIRPRVGDFVFDAAEVEVMRRDVEQCVRLGCDGVVLGALDPQGQVDLPAMRALIEAAGTLGVTFHRAIDVSADPARVLEDAITLGCERVLTSGARASALEGVETIAALVRQAGERISIMPGAGVSAANVQALRAGTGAREFHASARGPVAAQVHAPHPYITDLGGDYQRTDVARVRSIVQLLQTALEHHHHHH”, the “soluble on expression in E. coli” value is “not soluble”.
